Tests used:
[1] = target: human FcγRIIIa (CD16a) V158 (human); test: SPR; Biacore 8K; His-tagged FcγRIIIa captured (aimed 60 RU) by anti His-tag antibody on a CM5 chip; antibody samples as analytes (trastuzumab samples 360 to 22.5 nM); PBS with 0.005% Tween-20; 1:1 Langmuir global fit; temperature of the printed KD not stated (measured at 21-29 °C)
[2] = target: human FcγRIIIa (CD16a) V158 (human); test: SPR; Biacore 8K; His-tagged FcγRIIIa captured (aimed 60 RU) by anti His-tag antibody immobilised on a CM5 chip; antibody samples as analytes (360 to 22.5 nM for the trastuzumab samples); PBS with 0.005% Tween-20; global fit, 1:1 Langmuir model; measured at 21-29 °C, the temperature of Table S1 not given
[3] = target: human FcγRIIIa (CD16a) V158 (human); test: SPR; van't Hoff analysis of the temperature dependence of KD (21, 23, 25, 27, 29 °C), parameters at 25 °C; FcγRIIIa captured by anti His-tag antibody, antibody as analyte; PBS with 0.005% Tween-20
[4] = target: human FcγRIIIa (CD16a) V158 (human); test: SPR
Target sequence in this assay (P08637 17-208 F176V): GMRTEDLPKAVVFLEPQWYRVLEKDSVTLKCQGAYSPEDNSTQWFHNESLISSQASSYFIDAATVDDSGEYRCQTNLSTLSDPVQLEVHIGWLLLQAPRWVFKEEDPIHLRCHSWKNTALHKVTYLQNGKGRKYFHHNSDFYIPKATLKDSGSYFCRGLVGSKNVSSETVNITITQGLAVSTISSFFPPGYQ

| Substance | koff [2] | kon [2] | also measured |
| --- | --- | --- | --- |
| Rituximab (Rituxan), an anti CD20 human antibody | 0.0331 s⁻¹ | 540000 M⁻¹ s⁻¹ | Kd [1]: 61.4 nM |
| Trastuzumab (anti-HER2 humanized IgG1) (antibody) | 0.0281 s⁻¹ | 550000 M⁻¹ s⁻¹ | Kd [1]: 51 nM; dH [3]: -35.9 kcal/mol |
| afucosyl rituximab | – | – | Kd [4]: 10.9 nM |
| afucosyl rituximab (antibody) | 0.0108 s⁻¹ | 990000 M⁻¹ s⁻¹ | fold increase of affinity relative to rituximab [1]: 22 fold |
| divalent DOTA-conjugated trastuzumab | – | – | Kd [4]: 3.6 nM |
| divalent DOTA-conjugated trastuzumab (antibody) | 0.0089 s⁻¹ | 2.46e+06 M⁻¹ s⁻¹ | – |
| monovalent DOTA-conjugated trastuzumab (antibody) | 0.0116 s⁻¹ | 950000 M⁻¹ s⁻¹ | Kd [2]: 12.2 nM |
